Reference: patent US20050032039A1

Target: HLA class I
Assay: cell-based or functional assay

Q: Which reduction in HIV-1 envelope-specific CTL activity (PBMCs from LB as effector cells, E:T 25:1, 1:4 dilution of W6/32 hybridoma supernatant) does the source give for W6/32, the class I-specific antibody here?
A: 73%

Q: What about the specific lysis value with W6/32 (PBMCs from LB, E:T 25:1) of the same substance?
A: 6.2%

Q: What about the specific lysis value without W6/32 (PBMCs from LB, E:T 25:1) of the same substance?
A: 23.2%
